Measurements from PMC6908968 (Cell, 2019).

T1: thermolysin-cleaved EBOV GP on Jurkat-GP cells (cleaved GP) (Zaire ebolavirus, Makona (GP1 core …, strain))
T1 chain 1: not shown
T1 chain 2: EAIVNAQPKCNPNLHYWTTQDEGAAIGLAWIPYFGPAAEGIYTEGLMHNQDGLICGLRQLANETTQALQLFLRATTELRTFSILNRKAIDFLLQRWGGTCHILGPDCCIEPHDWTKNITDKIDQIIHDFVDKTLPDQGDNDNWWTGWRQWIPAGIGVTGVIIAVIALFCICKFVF


Assays:
[1] = target: EBOV GP ectodomain residues 1-636 (GPec) (Zaire ebolavirus, strain  …, UniProt Q05320)
[2] = target: T1, thermolysin-cleaved EBOV GP on …
[3] = target: EBOV glycoprotein (GP), Makona strain, full length mature, on Jurkat-GP cells (native GP) (Zaire ebolavirus, Makona (stand-in: …, UniProt P87666, strain))

Row | Binder | binding result [1] | binding result [2] | binding result [3]
1 | 5.6.c4392 (antibody, V domains shown) VH: QVQLVESGGGVVQPGRSLRLSCAASGFFFRNYGIHWVRQAPGKGLEWVAIISYDESKKYYADSVKGRFTISRDNSKNTLYLQMNSLRAEDTAVYYCAKAHPHSRWFFDSWGQGTLVTVSS VL: NFVLTQPHSVSDSPGKTVTISCTRSSGSIATDYVQWYQQRPGSAPTLVIYEDNQRPSGVPNRFSGSIDSSSNSASLTISGLETEDEADYYCQSYDPTNLVFGGGTKLTVL | binds | binds | 
2 | 5.6.c3567 (antibody, V domains shown) VH: EVQLVESGGVVVQPGGSLRLSCAASGFTFDDYTMHWVRQVPGKGPEWVSLITWDGAHTYYADSVKGRFTISRDNSKNSLYLQMNSLRTEDTALYFCARDTAGGAFWSGYPDYWGQGTLVTVSS VL: DIQMTQSPSSLSASVGDRVTITCRASQSISSYLIWYQQKPGKVPKVLIYGASSLQSGVPSRFSGSGSGTDFTLTISSLQPEDFATYYCQQSHSIPYTFGQGTKLEIK | binds | binds | 
3 | 5.6.c4011 (antibody, V domains shown) VH: QVQLQESGPGVVKPSETLSLTCTVSGASMTGYYWSWIRQPPGKGLEWIGYIFYSGSTNYNPSLKSRATISVDTSKKQFSLKLSSVTAADTAVYYCARSVVVIENDAFDIWGQGTMVTVSS VL: DIQMTQSPSSLSASVGDRVTITCRASQSTTSYLNWYQQKPGKAPKLLIFAASTLQSGVPSRFSGSGSGTDFTLTISSLQPEDFATYYCQQSYSAPYTFGQGTKLEIK | binds | binds | 
4 | 5.6.c4013 (antibody, V domains shown) VH: EVQLVESGGDLVQPGGSLRLSCAASGFTVNANYLGWVRQTPGKGLEWVSLIYSGSGSTYYADSVKGRFTLSRDSSKNTLFLHMNSLRPEDTAVYYCARAGGVVVTAIRTTFDYWGRGTLVTVSS VL: DIQMTQSPSTLSASVGDRVTITCRASQSISRWLAWYQQKPGKAPKLLIYRASSLQNGVPSRFSGSGSGTEFTLTISGLQPDDFGIYYCQEYSSRYTFGQGTQLEIK | binds | binds | 
5 | 9.1.c1500 (antibody, V domains shown) VH: QLQLQESGPGLVKPSETLSLTCTVSGGSISSSSYFWGWIRQPPGKGLELIGIIYYTGNTNYNPSLKSRVTISVDTSKNQFSLKLSSVTAADTAVYYCARSLEAHLLYYYAMDVWGQGTTVTVFS VL: QSALTQPRSVSGSPGQSVTISCTGTSSDVGGYNYVSWYQQHPGKAPKLMIYDVSQRPSGVPDRFSGSKSGNTASLTISGLQAADEADYYCCSYAGSSWVFGGGTKLTVL | binds | binds | 
6 | 9.1.c1617 (antibody, V domains shown) VH: QVQFVESGGGLVKPGGSLRLSCTTSGFTFSDYYMSWIRQAPGKGLEWVSYISRSGNIIYYPDSVKGRFTISRDNAKNSLYLQMNSLRVEDTAVYYCAGGVQRGYNYYYYGMYVWGQGITVTVSS VL: DIVMTQSPLSLPVTPGEPASISCRSSQSLLHSNGYNYLDWYLQRPGQSPQLLIYLGSNRASGVPDRFSGSGSGTDFTLKISRVEAEDFGFYYCMQALQTPYTFGQGTKLEIR | binds | binds | 
7 | 5.6.c3557 (antibody, V domains shown) VH: QVQLVESGGGVVQPGRSLRLSCAASGFSITNYAMHWVRQAPGRGLEWVALISYDGINQYYADSVKGRFTFSRDNSKNTLYLQMNSLRLDDTAVYYCARDPASPSDIFQDAFDIWGQGTTVIVSS VL: DIQMTQSPSSLSASVGDRVTITCRASQDISGWLAWYQQKPEKAPRSLIYATSSLQSGVPSRFSGSGSGTDFTLTISSLQPEDFATYYCQQYHSYPLTFGGGTKIQIK | binds | binds | 
8 | 9.1.c1965 (antibody, V domains shown) VH: QVQLVQSGAEVKKPGASVKVSCKASGYTFTRYGINWVRQAPGQGLEWMGWISAYNGHTSYAQKLQGRVTMTTDTSTSTAYMELSSLRSDDTAVYYCARDAGMVRPYYFDYWGQGTLVTVSS VL: not shown | binds | binds | 
9 | 5.6.c3105 (antibody, V domains shown) VH: EEQLVESGGDLVQPGGSLRLSCAASGFTFRSYDMYWVRQVTGKGLEWVSVIGAGGDTYYSDAVKGRFTISRENAKNSLYLQMNNLRAGDTAVYYCARSFGFLYGFDVWGHGTTVTVSS VL: ENVLTQSPGTLSLSPGERATLSCRASQSISSKYFAWYQHKPGQAPRVLIYAASSRATGVPDRFSGSGSGTDFTLTISRLEPEDFAVYYCQQYDSSPITFGQGTRLEIK | binds | binds | binds
10 | 9.1.c1853 (antibody, V domains shown) VH: EVQLVQSGAEVKKPGESLRISCKGSGNSFSSYWISWVRQKPGKGLEWMGRIDPSDSYTSYSPSFQGHVTISADKTNSTAYLQWSGLKASDTAVYYCAREVAGEEIFYYYYMDVWGKGTPVTVSS VL: EIVLTQSPVTLSLSPGEKATLSCRASQSVISSYLVWYQQKPGQAPRLLIYGASNRASGIPDRFSGSGSGTDFTLTISRLEPEDFAVYYCQLYGSLPRWTFGQGTEVQIK | binds | binds | 
11 | 9.1.c1533 (antibody, V domains shown) VH: QVQLQESGPGLVKPSGTLSLTCTVSGGSISSNNWWSWVRQSPGKGLEWIGEIYHSGSTNYNPSLKSRVTISVDKSKNQFSLKVSSVTAADTAVYYCARGDQLIYYFDYWGQGTLVTVSS VL: QSALTQPASVSGSPGQSITISCTGSSSDVGVYDFVSWYQQHPGKAPKLMIYEVSNRPSGVSNRFSGSKSGNTASLTISGLQAEDEANYYCSSYTSSITNVVFGGGTKLTVL | binds | binds | 
12 | 9.1.c1482 (antibody, V domains shown) VH: QLQLQESGPGLVKPSETLSLTCTVSGGSITSGSNYWGWIRQSPGKGLEWIGSIYYSGSTYYNPSLKSRVTTSVDTSKNQFSLRMSSVTAADTALYYCVRHLSTELLFGCFDPWGQGTLVTVSS VL: DIQMTQSPSTLSASVGDRVTITCRASQSITGWLAWYQQKPGKAPKLLIYDASSLESGVPSRFSGSGSGTEFTLTISSLQPDDFATYYCLQYHSYSSFGQGTKLEIK | binds | binds | 
13 | 5.6.c3835 (antibody, V domains shown) VH: QIQLVQSGAEVKKPGASVKVSCRASGYTFASSGISWVRQAPGQGLEWMGWINVYNGDTNSAHKLQGRVTMTTDTSTSTAYMELRSLRSDDTAVYYCTRDSFCAGSNSCYLWAGYYYYAMDVWGQGTTVTVSP VL: EIVMTQSPATLSVSPGERATLSCRASQSLSSNLAWYQQKPGQAPRLLIYRASTRATGVPARFSGSGSGTEFTLIISNLQSEDFAVYYCQQFQNWPRTFGQGTKVEIK | binds | binds | 
14 | 5.6.c4516 (antibody, V domains shown) VH: EVHLVESGGGLVQRGGSLRLSCVASKFSFSFYSMGWVRQPPGKGLEWVSFISISGTTIYYEDSVKGRFTISRDDAKNSLYLQMNSLRDEDTAVYYCARIPQAAFHFDYWGQGTLVAVSS VL: QSALTQPASVSGSPGQSITISCTGSSSDVGSYNLVSWYQQHPGKAPKLMIYEGSSRPSGVSNRFSGSKSGNTASLTISGLQAEDEADYYCCAYAGTRTWLFGGGTKVTVL | binds | binds | 
15 | 5.6.c4515 (antibody, V domains shown) VH: QVQLVESGGDVVQPGRSLRLSCAASGFIFSTYGMHWVRQTPGKGLEWVAVLYYDGRNGYYADSVKGRFTISRDNSKNTLYLQMNSLRAEDTAVYYCARDGCSSTDCLLYYYAMDVWGQGTTVTVSS VL: QSALTQPPSASGSPGQSVTISCTGTSSDVGAYNYVSWYQQHPGKGPKLMIYEVNQRPSGVPGRFSGSKSGNTASLTVSGLQTEDEADYFCSSYAGSNTVVFGGGTKLTVL | binds | binds | 
16 | 9.1.c2296 (antibody, V domains shown) VH: QVQLVESGGGVVHPGRSLRLSCAASGFTFSTYGMHWVRQAPGKGLEWVAVISYDGTNKYYADSVKGRFTTSRDNSKNTLYLQMNSLRAEDTAVYYCAKGEAYYDILTGNIDMWGQGTMVTVSS VL: DIQMTQSPSTLSASVGDRVTITCRASQSISYWLAWYQQKPGKAPKVLIYDVSSLESGVPSRFSGSGSETEFTLTISSLQPDDFATYYCQQYHSYPLTFGGGTKVEIK | binds | binds | 
17 | 5.6.c4395 (antibody, V domains shown) VH: EVQLVESGGGLVQPGGSLRLSCAASGFTFSTYEMNWVRQAPGKGLEWIAFIDDGGSTINYADSVKGRFTVSRDNAKNSLYLQMNSLRADDTAIYYCARVMTTSFYYYGVDVWGQGTTVTVSS VL: DIQMTQSPSIVSASVGDRVTITCRASQGVSYWLAWYQQKPGKAPKLLIYAASSLQSGVPSRFSGSGSGTDFTLTISSLQPEDFATYYCQQAHSFPWTFGQGTKVEMK | binds | binds | 
18 | 5.6.c4471 (antibody, V domains shown) VH: QIQLVQSGTEVKKPGASVKVSCTASGYTFNNYAITWVRQAPGQGLEWMGWINPYNGDTTYAQKLQGRITMTTGRSTSTAYMDLRSLTSGDTAVYYCARGGAVTDLYFSYVMDVWGQGTTVSVSS VL: DIQMTQSPSSVSASVGDRVTITCRASQDVSYWLAWFQQKPGKAPELLIHAASSLQSGVPSRFSGSGSGTDFTLTINSLQPEDFATYYCQQSHSFPWTFGQGTKVEIK | binds | binds | 
19 | 5.6.c3363 (antibody, V domains shown) VH: EVKLVESGGDLIQPGGSLRLSCAGSGFTFSNYAMSWVRQAPGKGLEWVSGLSGSGRNTYYADSVKGRFTISRDNSQNTLFLQMNSLRAEDTAIYYCATASVWSGYVLQYWGQGALVIVSS VL: DIQMTQSPSSLSASVGDRVTITCRASQNINDWLAWYQQKPGKAPKLLIFRASSLESGVPSRFSGSGFGTEFTLTISSLQPDDFASYYCQQYKSYPMYTFGQGTKLDIN | binds | binds | binds
